Measured values reported in the supplement of paper PMC11246515.
± gives the standard deviation of the averaged measurements.

Assay: total protein half-life in vivo (active degradation + dilution); higher = more stable protein
[1] = E. coli NCM3722 delta-clpP delta-lon delta-hslV, growth: N-lim chemostat, doubling time 6 h
[2] = E. coli NCM3722 delta-clpP, growth: N-lim chemostat, doubling time 6 h
[3] = E. coli NCM3722 delta-hslV, growth: N-lim chemostat, doubling time 6 h
[4] = E. coli NCM3722 delta-lon, growth: N-lim chemostat, doubling time 6 h
[5] = E. coli NCM3722 delta-smpB, growth: N-lim chemostat, doubling time 6 h
[6] = wild type E. coli NCM3722, growth: C-lim chemostat, doubling time 3 h
[7] = wild type E. coli NCM3722, growth: C-lim chemostat, doubling time 6 h
[8] = wild type E. coli NCM3722, growth: C-lim chemostat, doubling time 12 h
[9] = wild type E. coli NCM3722, growth: N-lim chemostat, doubling time 6 h
[10] = wild type E. coli NCM3722, growth: N-lim chemostat, doubling time 12 h
[11] = wild type E. coli NCM3722, growth: P-lim chemostat, doubling time 6 h
[12] = wild type E. coli NCM3722, growth: P-lim chemostat, doubling time 12 h

Row | Sequence | total protein half-life in vivo [1] [h] | total protein half-life in vivo [2] [h] | total protein half-life in vivo [3] [h] | total protein half-life in vivo [4] [h] | total protein half-life in vivo [5] [h] | total protein half-life in vivo [6] [h] | total protein half-life in vivo [7] [h] | total protein half-life in vivo [8] [h] | total protein half-life in vivo [9] [h] | total protein half-life in vivo [10] [h] | total protein half-life in vivo [11] [h] | total protein half-life in vivo [12] [h]
1 | MKKYQQLAEQLREQIASGIWQPGDRLPSLRDQVALSGMSFMTVSHAYQLLESQGYIIARPQSGYYVAPQAIKMPKAPVIPVTRDEAVDINTYIFDMLQASRDPSVVPFASAFPDPRLFPLQQLNRSLAQVSKTATAMSVIENLPPGNAELRQAIARRYALQGITISPDEIVITAGALEALNLSLQAVTEPGDWVIVENPCFYGALQALERLRLKALSVATDVKEGIDLQALELALQEYPVKACWLMTNSQNPLGFTLTPQKKAQLVALLNQYNVTLIEDDVYSELYFGREKPLPAKAWDRHDGVLHCSSFSKCLVPGFRIGWVAAGKHARKIQRLQLMSTLSTSSPMQLALVDYLSTRRYDAHLRRLRRQLAERKQRAWQALLRYLPAEVKIHHNDSGYFLWLELPEPLDAGELSLAALTHHISIAPGKMFSTGENWSRFFRFNTAWQWGEREEQAVKQLGKLIQERL | 5.76 ± 0.15 | 6.15 ± 0.15 | 6.01 ± 0.29 | 6.09 ± 0.51 | 5.54 ± 0.38 | 3.02 ± 0.075 | 5.42 ± 0.59 | 10.5 ± 0.68 | 5.45 ± 0.55 | 13.1 ± 2.8 | 6.52 ± 0.27 | 14.3 ± 2.1
2 | MKLAVYSTKQYDKKYLQQVNESFGFELEFFDFLLTEKTAKTANGCEAVCIFVNDDGSRPVLEELKKHGVKYIALRCAGFNNVDLDAAKELGLKVVRVPAYDPEAVAEHAIGMMMTLNRRIHRAYQRTRDANFSLEGLTGFTMYGKTAGVIGTGKIGVAMLRILKGFGMRLLAFDPYPSAAALELGVEYVDLPTLFSESDVISLHCPLTPENYHLLNEAAFEQMKNGVMIVNTSRGALIDSQAAIEALKNQKIGSLGMDVYENERDLFFEDKSNDVIQDDVFRRLSACHNVLFTGHQAFLTAEALTSISQTTLQNLSNLEKGETCPNELV | 4.95 ± 0.5 | 5.65 ± 1.9 | 4.53 ± 0.051 | 5.26 ± 0.41 | 4.57 ± 0.16 | 3.08 ± 0.3 | 5.97 ± 0.49 | 11.3 ± 0.19 | 4.64 ± 0.38 | 7.53 ± 0.61 | 5.67 ± 0.38 | 12.3 ± 0.16
3 | MKLDEIARLAGVSRTTASYVINGKAKQYRVSDKTVEKVMAVVREHNYHPNAVAAGLRAGRTRSIGLVIPDLENTSYTRIANYLERQARQRGYQLLIACSEDQPDNEMRCIEHLLQRQVDAIIVSTSLPPEHPFYQRWANDPFPIVALDRALDREHFTSVVGADQDDAEMLAEELRKFPAETVLYLGALPELSVSFLREQGFRTAWKDDPREVHFLYANSYEREAAAQLFEKWLETHPMPQALFTTSFALLQGVMDVTLRRDGKLPSDLAIATFGDNELLDFLQCPVLAVAQRHRDVAERVLEIVLASLDEPRKPKPGLTRIKRNLYRRGVLSRS [P0ACP1] | 6.0472 ± 0.0054 | 5.37 ± 0.29 | 5.38 ± 0.37 | 5.87 ± 0.21 | 5.16 ± 0.56 | 3.17 ± 0.32 | 5.63 ± 0.057 | 9.99 ± 0.83 | 5.65 ± 0.2 | 10.7 ± 0.77 | 5.6 ± 0.084 | 10.65 ± 0.013
4 | MKLISNDLRDGDKLPHRHVFNGMGYDGDNISPHLAWDDVPAGTKSFVVTCYDPDAPTGSGWWHWVVVNLPADTRVLPQGFGSGLVAMPDGVLQTRTDFGKTGYDGAAPPKGETHRYIFTVHALDIERIDVDEGASGAMVGFNVHFHSLASASITAMFS |  | 5.59 ± 0.26 | > 8 | 5.79 ± 0.095 | 5.96 ± 0.2 |  | 6.07 ± 0.44 | 13.4 ± 2 | 5.42 ± 0.21 | 11.4 ± 1.1 | 6.04 ± 0.39 | 10.9 ± 2.7
5 | MKLKNTLLASALLSAMAFSVNAATELTPEQAAAVKPFDRVVVTGRFNAIGEAVKAVSRRADKEGAASFYVVDTSDFGNSGNWRVVADLYKADAEKAEETSNRVINGVVELPKDQAVLIEPFDTVTVQGFYRSQPEVNDAITKAAKAKGAYSFYIVRQIDANQGGNQRITAFIYKKDAKKRIVQSPDVIPADSEAGRAALAAGGEAAKKVEIPGVATTASPSSEVGRFFETQSSKGGRYTVTLPDGTKVEELNKATAAMMVPFDSIKFSGNYGNMTEVSYQVAKRAAKKGAKYYHITRQWQERGNNLTVSADLYK | 5.73 ± 0.21 | 5.99 ± 0.45 | 5.8 ± 0.2 | 5.46 ± 0.12 | 5.116 ± 0.0047 | 3.13 ± 0.059 | 5.73 ± 0.11 | 10.5 ± 0.55 | 5.47 ± 0.23 | 9.68 ± 0.69 | 5.61 ± 0.079 | 11.1 ± 0.13
6 | MKLNIRAQTAQNQHNNSPIVLVHGLFGSLDNLGVLARDLVNDHNIIQVDMRNHGLSPRDPVMNYPAMAQDLVDTLDAQQIDKATFIGHSMGGKAVMALTALASDRIDKLVAIDIAPVDYHVRRHDEIFAAINAVSESDAQTRQQAAAIMRQHLNEEGVIQFLLKSFVDGEWRFNVPVLWDQYPHIVGWEKIPAWDHPALFIPGGNSPYVSEQYRDDLLAQFPQARAHVIAGAGHWVHAEKPDAVLRAIRRYLND | 5.19 ± 0.27 | 5.13 ± 0.26 | 5.14 ± 0.17 | 5.82 ± 1.4 | 5.07 ± 0.61 | 3.04 ± 0.12 | 5.74 ± 0.4 | 9.16 ± 2.6 | 5.02 ± 0.39 | 10 ± 1.1 | 6.53 ± 0.95 | 12.4 ± 0.16
7 | MKLQNSFRDYTAESALFVRRALVAFLGILLLTGVLIANLYNLQIVRFTDYQTRSNENRIKLVPIAPSRGIIYDRNGIPLALNRTIYQIEMMPEKVDNVQQTLDALRSVVDLTDDDIAAFRKERARSHRFTSIPVKTNLTEVQVARFAVNQYRFPGVEVKGYKRRYYPYGSALTHVIGYVSKINDKDVERLNNDGKLANYAATHDIGKLGIERYYEDVLHGQTGYEEVEVNNRGRVIRQLKEVPPQAGHDIYLTLDLKLQQYIETLLAGSRAAVVVTDPRTGGVLALVSTPSYDPNLFVDGISSKDYSALLNDPNTPLVNRATQGVYPPASTVKPYVAVSALSAGVITRNTTLFDPGWWQLPGSEKRYRDWKKWGHGRLNVTRSLEESADTFFYQVAYDMGIDRLSEWMGKFGYGHYTGIDLAEERSGNMPTREWKQKRFKKPWYQGDTIPVGIGQGYWTATPIQMSKALMILINDGIVKVPHLLMSTAEDGKQVPWVQPHEPPVGDIHSGYWELAKDGMYGVANRPNGTAHKYFASAPYKIAAKSGTAQVFGLKANETYNAHKIAERLRDHKLMTAFAPYNNPQVAVAMILENGGAGPAVGTLMRQILDHIMLGDNNTDLPAENPAVAAAEDH [P0AD65] | 7.59 ± 0.27 | 6.61 ± 0.79 | 6.75 ± 0.56 | 6.37 ± 0.078 | 5.71 ± 0.077 | 3.03 ± 0.031 | 6.92 ± 1.1 | 11.8 ± 0.77 | 6.5 ± 0.79 | 13.4 ± 0.88 | 6.24 ± 0.3 | 13.7 ± 1
